{"source": "patent US5145783A", "about": "“Glyphosate-tolerant 5-endolpyruvyl-3-phosphoshikimate synthase” (Monsanto Company, priority 1990, dated 1992)", "molecules": {"B1": {"name": "pMON9719: wild-type EPSP synthase of tomato expressed in E. coli SR481 under the recA promoter, cell extract (protein, UniProt P10748 77-520, looked up)", "3-phosphoshikimate …": "KPHEIVLXPIKDISGTVKLPGSKSLSNRILLLAALSEGRTVVDNLLSSDDIHYMLGALKTLGLHVEDDNENQRAIVEGCGGQFPVGKKSEEEIQLFLGNAGTAMRPLTAAVTVAGGHSRYVLDGVPRMRERPIGDLVDGLKQLGAEVDCSLGTNCPPVRIVSKGGLPGGKVKLSGSISSQYLTALLMAAPLALGDVEIEIIDKLISVPYVEMTLKLMERFGVFVEHSSGWDRFLVKGGQKYKSPGKAFVEGDASSASYFLAGAAVTGGTVTVEGCGTSSLQGDVKFAEVLEKMGAEVTWTENSVTVKGPPRNSSGMKHLRAIDVNMNKMPDVAMTLAVVALFADGPTTIRDVASWRVKETERMIAICTELRKLGATVVEGSDYCIITPPEKLNVTEIDTYDDHRMAMAFSLAACADVPVTIKNPGCTRKTFPDYFEVLQKYSKH", "modifications": "X: residue not identified in the source", "notes": "wild-type EPSP synthase of tomato expressed in E. coli SR481 under the recA promoter, cell extract"}}, "biological_target": "T1, wild-type EPSP synthase of tomato (Solanum lycopersicum, UniProt P10748)", "T1 construct": "ATG translational initiation codon at the site predicted to be the start of the mature enzyme for in vitro expression in E. Coli; initiator methionine (ATG in an engineered NcoI site) (N); made in house; host or cells: E. coli SR481 (aroA mutant) harboring pMON9719, desalted cell extract", "assay": "EPSP synthase activity assay, extracts of E. coli SR481 harboring pMON9719", "format": "biochemical", "details": "cells containing pMON9719, no glyphosate", "procedure": "E. coli SR481 cells harboring pMON9719 or pMON9729 were grown under conditions which induce the expression of the RecA promoter. The cells were lysed and the extracts were assayed for EPSP synthase activity.\nSpecifically, the bacterial cell paste was washed twice with 0.9% saline, suspended in buffer (100 mM Tris-HCl, 5 mM dithiothreitol, 1 mM EDTA, 10% glycerol and 1 mM benzamidine HCl) passed twice through the French Pressure Cell at 1000 psi. The cell abstract was separated from the cells by centrifuging at 15,000×gravity for 10 mins. at 5° C. It was desalted using Sephadex G-50 (Pharmacia, Piscataway, N.J.). The desalted extract was assayed for EPSP synthase activity as follows:\nTo an assay mix (40 μl) containing shikimate-3-phosphate (2 mM), ^14 C-phosphoenolpyruvate (1 mM, 1.2 mCi/mmol), ammonium molybdate (0.1 mM), potassium fluoride (5 mM), in 50 mM HEPES-KOH, pH 7, was added 10 μl of the extract and incubated at 25° C. for 2 mins. […] The radioactivity of the eluent was monitored using a Radiometric Flo-One Beta Instrument. […] The EPSP synthase activity was determined by measurement of the conversion of ^14 C-PEP to ^14 […], both of which are resolved under the above conditions of chromatography. The protein content of the extract was determined by the method of Bradford (Biorad Labs, Calif.). […]"}
{"molecule": "B1", "values": [{"measurement": "EPSP synthase activity (specific activity of the extract)", "value": "about 1600 nanomoles of EPSP synthase formed/minute/mg protein"}]}
